Assay: yeast display, Sf9 membrane polyspecificity reagent, FACS + sequencing; frameworks hold sequencing errors
Procedure, shortened: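 Nanobodies from a synthetic yeast display library (Saccharomyces cerevisiae BJ5465), induced 36–48 hours with galactose, were stained 1 hour at 4 °C with 10% biotinylated, detergent-solubilized Sf9 membrane reagent, enriched on streptavidin microbeads, then FACS-sorted. Anti-HA (expression) and streptavidin (reagent binding) fluorescence set low and high (top ~1%) gates. Polyreactivity labels come from the gate of origin. Genes were colony-PCR amplified, MiSeq 2 × 250 sequenced and filtered by CDR length.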

Row | Sequence | polyreactivity (PSR sort gate)
1 | QVQLVESGGGLVQAGGSLRLSCAASGLTFYQYAMGWYRQAPGKERELVAGITSGGSTKYADSVKGRFTISRDNAKNTVYLQMNSLKPEDTAVYYCAARFYAFRKGYYYWGQGTQVTVSS | high polyreactivity
2 | QVQLVESGGGLVQAGGSLRLSCAASGSTFKGYAMGWYRQAPGKERELVAAITWIGGSTTYADSVKGRFTISCDNAKNTVYLQMNSLKPEVTAVYYCAADNFWYFLSATEDYWGQGTQVTVSS | low polyreactivity
3 | QVQLVESRGCLVQAGGSHRLSCAASGSISDVNPMGWYRQARGNERELFAAMTSRRGGTNYADSVKGRFTISRDYAKNTVYLQMNSLNPEDTAVYYCAVYVSTKASKQGYGPGDYWGQGTQVTVSS | low polyreactivity
4 | QVQLVESGGGLVPAGGSLRLSCAASGFTFSYYAMGWYRQAPGKERELVAAISWSGGRTYYADSVKGRFTISRDNAKNTVYLEMNRLKPEDTAVYYCAVVYYGSIFVLEYDYWGQGTQVTVSS | high polyreactivity
5 | QVQLVESGGGLVQAGGSLRLSCAASGRIFFLYAMGWYRQAPGKERELVASITRRGGSTYYADSVKGRFTISRDNAKNTVYLQMKSLKPEDTAVYYCAAELYRSNVYHYDYWGQGTQVTVSS | high polyreactivity
6 | QVQLVESGGGLVQAGGSLRLSCAASGNIFRKYAMGWYRQAPGKERELVATISYSGGSTYYADSVKGRFTISRDNAKNTVYLQMNSLKPEDTAVYYCNAVKDLDSSFDYWGQGTQVTVSS | low polyreactivity
7 | QVKLVESGGGLVQAGGSLRLSCAASGSTFPRYAMGWYRQAPGKEREFVAVIWSGGSTYYADSVKGRFTISRDNAKNTVYFQMNSLIPEDTAVYYCAAEYHTLSKYSGYATHDYWGQGTQVTVSS | low polyreactivity
8 | QVQLVESGGGLVQAGGSLRLSCAASGSTFRPNAMGWYRPAPGKDRELVAAISWSGRSTYYADSVKGRFTISRDQAKTTVYLQMNSLTPQDTAVADCAKELYAGRTDTRTRYDYWGQGTQVTVSS | high polyreactivity
9 | QVQLVESGGGLVQAGGRLRLSCAAAGSIFSYTMGWYRQAPWKERELVAAIRRRGGSTYYADSVKGRFTISRDNAKNTVYLQMTSLKPEDTAVYYCAADGYQYRHRRFFYWGQGTQVTVSS | high polyreactivity
10 | QVLLVESGGGLVQAGGSLRLSWAASGSIFTIYAMGWYRKAPGQERELVAAMNRGDGTNYADSVKGRFTISRDKAKNTVYLQMKSLKPEDTPVYYCAAEYYTEYQKWFDYWGQGTQVTLSS | high polyreactivity
11 | QVQLVESGGGLVQAGGSLRLSCAASGSIFTLNTMGWYIQAPGKERELVAVISRSGDRTYYADSVKGRFTISRDNAKNTVYLQMNSLKPEDTAVYYCAADTTKRVRGYDYWGQGTQVTVSS | high polyreactivity
12 | QVQLVESGGGLVQAGGSLRLSCAASGRTLRGYAMGWYRQAPGKERELVAAITWSGGSTYYADSVKGRFTISRDNAKNTVYLQMNSLKPEDTAVYYCNARSYPDLYDYWGQGTQVTVSS | low polyreactivity
13 | QVQIVESGGGLVQAGGSLRLSCAASGGTFYLYAKGWYRQAPGKERELVAAITTSGGSTYYADSVKGRFTISRDHAKNTVYLQMNSLKPEDTAVYYCNKDLSSTKFDYWGQGTQVTVSS | low polyreactivity
14 | QVQLVESAGGLVQAGGSLRLICAATGLNLYVYVMGWYRQAPGKERELVAAITWSVSRTYYADSVKGRFTISRDNAKNTVYLQMNSLKPEDTAVYYCAARIPSDGYYYWGQGTQVTVSS | high polyreactivity
15 | QVQLVESGGGLVQAGGSLRLSCAASGNTFWFYGMGWYRQAPGKERELVAAITSGGSTDYADSVKGRFTISRDNAKNTVYLLLNSLKPEDTAVYYCAAEPVAYYGSSYGYWGQGTQVTVSS | low polyreactivity
16 | QFQLVESGGGLVQAGGSLRLSCAASGSIFEPNAMGWYRQAPGKEREFVAAISGSGGSTYYADSVKGRFTISRDNAKNTVYLQMNSLIQEDTAVYYCATRGKRSYFRTFYYWGQGTQVTVSS | high polyreactivity

Row | Sequence | polyreactivity (PSR sort gate)
17 | QDQLVESGGGLVQAGGSLRLSCAASGLIFGGYDMGWYRQAPGKERELVAAISCDDGDTYYADSVKGRFTISRDNAKNTVYLQMNSLKPEDTAVYYCAAESLSGAHGYWGQGTQVTVSS | low polyreactivity
18 | QVQLVESGGGLVQAGGSLRLSCAASGSTFLSYAMGWYRQAPGKERELVAAITSGGRTYYADSVKGRFTISRDNAKNTVYLQMNSLKPEDTAVYYCAAVTGRFGYWGQGTQVTVSS | high polyreactivity
19 | QVQLEESGGCLVQAGGRIRLSCAASGSIFGYYAMGWYRQAPGKERELVADISYTGVSTYYADSVKGRFTISRDNAKNTVYLQMNSLKPEDTAVYYCAADWVYPDYSWYSYTDFDYWGQGTQVTVSS | low polyreactivity
20 | QVQLVESGGGLVQAGGSLRLSCAASGSIFHQYAMGWYRQAPGKERELVAAISANGGRTYYADSVKGRFTISRDNAKNTVYLQMNSLIPEDTAVYYCAASRPSYGVRYGYWGQGTQVTGSS | high polyreactivity
21 | QDQLVESGGGLVQAGGSLRLSCAASGSTLYSNTMGWYRPAPGKERELVAAICWSGASTYYADSVKGRFSISRDNAKNTVYLQMNSLKPEDTAVYYCAAGAYRNWGLYYYWGQGTQVTVSS | high polyreactivity
22 | QVQLVESGGGLVQAGGSLRLSCAASGRIFGKYAMGWYRHAPGKERELVAAIRSRGSTTYYADSVKGRFTISRDNAKNTVYLQMNSLKPEDTAVYYCAKDVGGKPWYPYGYWGQGTQVTVSS | high polyreactivity
23 | QVQLVESGGGLVQAGGSLRLSCAASGFTFDENAMGWYRQAPGINYSGASTYYADSVKGRFTISRDNAKNTVYLQMNSLKADDTAVYYCAAEVVAQMNYWGQGTQVTVSS | low polyreactivity
24 | QVQLVESGGGLVQAGGSLLLSCAGTARNFTYNAMGWYRQAPGKERELVARITSGGNTNYADSVKGRFTISRDNAKNTVYLQMNSLKPEDTAVYYGATGLFWFTNRYGSWGQGTQVTVSS | low polyreactivity
25 | QVQLVESGGGLVQAGGSLRLSCAASGFTFRVYVMGWYREAPGKERELVAGITRTGRTYYADSVKGRFTISRDNAKNTVYLQMNSLKPEDTAVYYCAATRPYSHRDYYYWGQGTQVTVSS | high polyreactivity
26 | QVQLVESGGGLVQAGGSLRLSCAASGSIFNLNAMGWYRQAPGKERELVASISSDGSTYYADSVKGRFTISRDNAKNTVYLQMNSLKPEDTAVYYCNADSQWAFKQLSFDYWGQGTQVTVSS | low polyreactivity
27 | QVQLVESGGGLVQAGGSLRLSCAASGRTFKVYAMGWYRQAPWKERDLVAAISFSGGSTYYADSVKGRFTISRDNAKNTDYLQMNSLKPEDTAVYYCAAKRYGEYRARGYYYWGQVTQVTVSS | high polyreactivity
28 | QVQLVESGGGLVQAGGSLRLSCAASGSICYDDMGWYSQAPGKERELVAAITWSGGSTYYADSVKGRFTISRDNAKNTVYLQMNSLKPEDTAVYYCAAIFGYGSTWWRWGKDDYWGQGTQVTVSS | high polyreactivity
29 | QVQLVESGGGLVQAGGSLRLSCAASGSTFYYYAMGWYRQAPGKEREFVAAITFRGGSTYYADSVKGRFTISRDNAKNTVYLQMNSLKPEDTAVYYCAAKPPFRNYVRYDYWGQGTQVTVSS | high polyreactivity
30 | QVQLVESGGGLVQAGGSLRLSCAASGIIFVYYAMGWYRQAPGKERELVAAISTGGTRTYYADSVKGRFTISRDNAKNTVYLQMNSLKPEDTAVYYCNARGRYRKSERRAFDYWGQGTQVTVSS | high polyreactivity
31 | QVQLVESGGRLVQAGGSLRLSCAASGSTFIQNAMGWSRQAPGKDRELVAAITSGGGTNYADSVKGRFTISRDNAKNTVYLQMNSLKPEDTAVYYCAAEPFNYDDFWFGWEYLYDYWGQATQVTVSS | low polyreactivity
32 | QVQLVESGGGLVQAGGSLRLSCAASGFTFNRYAMGWYRQAPGKERELVARITRGGSTKYADSVKGRFTISRDNAKNTVYLQMNSLKPEDTAVYYCAADYGGFLGYDYWGQGTQVTVSS | high polyreactivity

Reference: the nanobody polyreactivity screen of Harvey et al. (2022)
